8 molecules from US11278600B2, “Human alpha-galactosidase variants” (Codexis, Inc., priority 2014, dated 2022) can be followed below.

What all share (type): biochemical
Data set [1] is described as follows: HTP-analysis of supernatants pretreated with base (MUGal hydrolysis). The conditions noted are these: challenge at pH 7.6; activity of the variant/activity of Rd2BB (SEQ ID NO: 10); yeast supernatant. The method in brief:
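Supernatants from INVSc1 yeast expressing GLA variants (SD-Ura, 66-84 h, 30° C) were mixed with McIlvaine buffer pH 7.0-8.2 or 200 mM sodium bicarbonate pH 9.1-9.7 and held 1-18 h at 37° C. Residual activity was then measured on MUGal at pH 4.8/4.3, 37° C, 30-180 min, by fluorescence (Ex 355/Em 448 nm).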

Data set [2] in a line: HTP-analysis of supernatants pretreated with acid (MUGal hydrolysis). The note with it: challenge at pH 4.2; activity of the variant/activity of Rd2BB (SEQ ID NO: 10); yeast supernatant. The essentials: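 MUGal hydrolysis was tracked by fluorescence (Ex 355 nm, Em 448 nm) after a 30-180 min reaction at 37° C. in pH 4.8 McIlvaine/citrate buffer, stopped with 1 M sodium carbonate. Beforehand, yeast (INVSc1) culture supernatants carrying GLA variants were held 1-3 h at 37° C. in acidic McIlvaine buffer, pH 3.3-4.3.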

Data set [3] is described as follows: HTP-analysis of yeast culture supernatants, no challenge (MUGal hydrolysis). The conditions noted are these: activity of the variant/activity of Rd2BB (SEQ ID NO: 10), yeast supernatant. The essentials: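 GLA variants were expressed in INVSc1 yeast grown in SD-Ura broth with glucose at 30° C., and culture supernatants were collected after 66-84 h. Supernatant was mixed with McIlvaine buffer pH 4.8 and MUGal (2 mM stock) in 50 mM citrate, 200 mM KCl, pH 4.6, incubated at 37° C. for 30-180 minutes, then quenched with sodium carbonate.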

B1: 220 (protein)
chain: LDNGLARTPTMGWLHWERFMCNLDCQEEPDSCISEKLFMEMAELMVSEGWKDAGYEYLCIDDCWMAPQRDSEGRLQADPQRFPHGIRQLANYVHSKGLKLGIYADVGNKTCAGFPGSFGYYDIDAQTFADWGVDLLKFDGCYCDSLENLADGYKHMSLALNRTGRSIVYSCEWPLYMWPFQKPNYTEIRQYCNHWRNFADIDDSWASIKSILDWTSFNQERIVDVAGPGGWNDPDMLVIGNFGLSWNQQVTQMALWAIMAAPLFMSNDLRHISPQAKALLQDKDVIAINQDPLGKQGYQLRQGDNFEVWERPLSGLAWAVAVINRQEIGGPRSYTIAVASLGKGVACNPACFITQLLPVKRKLGFYEWTSRLKSHVNPTGTVLLQLENTMQMSKDLLL
modifications: Synthetic Polypeptide sequence of Variant No. 220 of mature Human GLA
As for B1, the “Relative Activity of GLA Variants After Challenge at pH 7.6” value (“Relative Activity … at pH 7.6” for short) in data set [1] is “++ (++ = 1.5 to 2.5 relative activity over Rd2BB (SEQ ID NO: 10))”. Moreover, the “Relative Activity of GLA Variants After Challenge at pH 4.2” value (shortened to “Relative Activity … at pH 4.2”) in data set [2] is on record as “+ (+ = 0.5 to 1.5 relative activity over Rd2BB (SEQ ID NO: 10))”. The “Relative Activity of GLA Variants After No Challenge (NC)” value in data set [3] was “+ (+ = 0.5 to 1.5 relative activity over Rd2BB (SEQ ID NO: 10))”.

B2: 222 (protein)
chain: LDNGLARTPTMGWLHWERFMCNLDCQEEPDSCISEKLFMEMAELMVSEGWKDAGYEYLCIDDCWMAPQRDSEGRLQADPQRFPHGIRQLANYVHSKGLKLGIYADVGNKTCAGFPGSFGYYDIDAQTFADWGVDLLKFDGCYCDSLENLADGYKHMSLALNRTGRSIVYSCEWPLYMWPFQKPNYTEIRQYCNHWRNFADIDDSWASIKSILDWTSFNQERIVDVAGQGGWNDPDMLVIGNFGLSWNQQVTQMALWAIMAAPLFMSNDLRHISPQAKALLQDKDVIAINQDPLGKQGYQLRQGDNFEVWERPLSGLAWAVAMINRQEIGGPRSYTIAVASLGKGVACNPACFITQLLPVKRKLGFYEWDSRLRSHINPTGTVLLQLENTMQMSKDLLL
modifications: Synthetic Polypeptide sequence of Variant No. 222 of mature Human GLA
Consider B2, for which the “Relative Activity … at pH 7.6” value in data set [1] is on record as “+ (+ = 0.5 to 1.5 relative activity over Rd2BB (SEQ ID NO: 10))”. For the same molecule, in data set [2], the “Relative Activity … at pH 4.2” value is given as “++ (++ = 1.5 to 2.5 relative activity over Rd2BB (SEQ ID NO: 10))”. Also, in data set [3], the “Relative Activity of GLA Variants After No Challenge (NC)” value is “++ (++ = 1.5 to 2.5 relative activity over Rd2BB (SEQ ID NO: 10))”.

B3: 227 (protein)
chain: LDNGLARTPTMGWLHWERFMCNLDCQEEPDSCISEKLFMEMAELMVSEGWKDAGYEYLCIDDCWMAPQRDSEGRLQADPQRFPHGIRQLANYVHSKGLKLGIYADVGNKTCAGFPGSFGYYDIDAQTFADWGVDLLKFDGCYCDSLENLADGYKHMSLALNRTGRSIVYSCEWPLYMWPFQKPNYTEIRQYCNHWRNFADIDDSWASIKSILDWTSFNQERIVDVAGPGGWNDPDMLVIGNFGLSWNQQVTQMALWAIMAAPLFMSNDLRHISPQAKALLQDKDVIAINQDPLGKQGYQLRQGDNFEVWERPLSGLAWAVAMINHQEIGGPRSYTIAVASLGKGVACNPACFITQLLPVKRKLGFYEWTSRLRSHINPTGTVLLQLENTMQMSKDLLL
modifications: Synthetic Polypeptide sequence of Variant No. 227 of mature Human GLA
With B3, the “Relative Activity … at pH 7.6” value in data set [1] was “− (− = <0.5 relative activity over Rd2BB (SEQ ID NO: 10))”. Moreover, the “Relative Activity … at pH 4.2” value in data set [2] is listed as “− (− = <0.5 relative activity over Rd2BB (SEQ ID NO: 10))”. In addition, the “Relative Activity of GLA Variants After No Challenge (NC)” value in data set [3] is “− (− = <0.5 relative activity over Rd2BB (SEQ ID NO: 10))”.

B4: 224 (protein)
chain: LDNGLARTPTMGWLHWERFMCNLDCQEEPDSCISEKLFMEMAELMVSEGWKDAGYEYLCIDDCWMAPQRDSEGRLQADPQRFPHGIRQLANYVHSKGLKLGIYADVGNKTCAGFPGSFGYYDIDAQTFADWGVDLLKFDGCYCDSLENLADGYKHMSLALNRTGRSIVYSCEWPLYMWPFQKPNYTEIRQYCNHWRNFADIDDSWASIKSILDWTSFNQERIVDVAGPGGWNDPDMLVIGNFGLSWNQQVTQMALWAIMAAPLFMSNDLRHISPQAKALLQDKDVIAINQDPLGKQGYQLRKGDNFEVWERPLSGLAWAVAVINRQEIGGPRSYTIAVASLGKGVACNPACFITQLLPVKRKLGFYNWTSRLRSHINPTGTVLLQLENTMQMSKDLLL
modifications: Synthetic Polypeptide sequence of Variant No. 224 of mature Human GLA
On to B4, for which the “Relative Activity … at pH 7.6” value in data set [1] was “+++ (+++ = >2.5 relative activity over Rd2BB (SEQ ID NO: 10))”. The “Relative Activity … at pH 4.2” value in data set [2] is “+++ (+++ = >2.5 relative activity over Rd2BB (SEQ ID NO: 10))”. In addition, the “Relative Activity of GLA Variants After No Challenge (NC)” value in data set [3] is recorded as “++ (++ = 1.5 to 2.5 relative activity over Rd2BB (SEQ ID NO: 10))”.

B5: 223 (protein)
chain: LDNGLARTPTMGWLHWERFMCNLDCQEEPDSCISEKLFMEMAELMVSEGWKDAGYEYLCIDDCWMAPQRDSEGRLQADPQRFPHGIRQLANYVHSKGLKLGIYADVGNKTCAGFPGSFGYYDIDAQTFADWGVDLLKFDGCYCDSLENLADGYKHMSLALNRTGRSIVYSCEWPLYMWPFQKPNYTEIRQYCNHWRNFADIDDSWASIKSILDWTSFNQERIVDVAGPGGWNDPDMLVIGNFGLSWNQQVTQMALWAIMAAPLFMSNDLRHISPQAKALLQDKDVIAINQDPLGKQGYQLRKGDNFEVWERPLSGLAWAVAMINRQEIGGPRSYTIPVASLGKGVACNPGCFITQLLPVKRQLGFYEWTSRLRSHINPTGTVLLQLENTMQMSKDLLL
modifications: Synthetic Polypeptide sequence of Variant No. 223 of mature Human GLA
With B5, the “Relative Activity … at pH 7.6” value in data set [1] is on record as “++ (++ = 1.5 to 2.5 relative activity over Rd2BB (SEQ ID NO: 10))”. In data set [2], the “Relative Activity … at pH 4.2” value is “++ (++ = 1.5 to 2.5 relative activity over Rd2BB (SEQ ID NO: 10))”. Further, the “Relative Activity of GLA Variants After No Challenge (NC)” value in data set [3] was “+ (+ = 0.5 to 1.5 relative activity over Rd2BB (SEQ ID NO: 10))”.

B6: 221 (protein)
chain: LDNGLARTPTMGWLHWERFMCNLDCQEEPDSCISEKLFMEMAELMVSEGWKDAGYEYLCIDDCWMAPQRDSEGRLQADPQRFPHGIRQLANYVHSKGLKLGIYADVGNKTCAGFPGSFGYYDIDAQTFADWGVDLLKFDGCYCDSLENLADGYKHMSLALNRTGRSIVYSCEWPLYMWPFQKPNYTEIRQYCNHWRNFADIDDSWASIKSILDWTSFNQERIVDVAGPGGWNDPDMLVIGNFGLSWNQQVTQMALWAIMAAPLFMSNDLRHISPQAKALLQDKDVIAINQDPLGKQGYQLRQGDNFEVWERPLSGLAWAVAMINRQEIGGPRSYTIAVASLGKGVACNPACFITQLLPVKRKLGFYEWTSRLRSHINPTGTVLLQLENTIQMSKDLLL
modifications: Synthetic Polypeptide sequence of Variant No. 221 of mature Human GLA
Take B6: the “Relative Activity … at pH 7.6” value in data set [1] is given as “+ (+ = 0.5 to 1.5 relative activity over Rd2BB (SEQ ID NO: 10))”. In addition, the “Relative Activity … at pH 4.2” value in data set [2] is on record as “+ (+ = 0.5 to 1.5 relative activity over Rd2BB (SEQ ID NO: 10))”. In data set [3], the “Relative Activity of GLA Variants After No Challenge (NC)” value was “+ (+ = 0.5 to 1.5 relative activity over Rd2BB (SEQ ID NO: 10))”.

B7: 225 (protein)
chain: LDNGLARTPTMGWLHWERFMCNLDCQEEPDSCISEKLFMEMAELMVSEGWKDAGYEYLCIDDCWMAPQRDSEGRLQADPQRFPHGIRQLANYVHSKGLKLGIYADVGNKTCAGFPGSFGYYDIDAQTFADWGVDLLKFDGCYCDSLENLADGYKHMSLALNRTGSSIVYSCEWPLYMWPFQKPNYTEIRQYCNHWRNFADIDDSWASIKSILDWTSFNQERIVDVAGPGGWNDPDMLVIGNFGLSWNQQVTQMALWAIMAAPLFMSNDLRHISPQAKALLQDKDVIAINQDPLGKQGYQLRQGDNFEVWERPLSGLAWAVAMINRQEIGGPRSYTIAVASLGKGVACNPACFITQLLPVKRKLGFYEWTSRLRSHINPTGTVLLQLENSMQMSKDLLL
modifications: Synthetic Polypeptide sequence of Variant No. 182 of mature Human GLA
With B7, in data set [1], the “Relative Activity … at pH 7.6” value is recorded as “+ (+ = 0.5 to 1.5 relative activity over Rd2BB (SEQ ID NO: 10))”. Also, the “Relative Activity … at pH 4.2” value in data set [2] is reported as “+ (+ = 0.5 to 1.5 relative activity over Rd2BB (SEQ ID NO: 10))”. Also, the “Relative Activity of GLA Variants After No Challenge (NC)” value in data set [3] was “+ (+ = 0.5 to 1.5 relative activity over Rd2BB (SEQ ID NO: 10))”.

B8: 226 (protein)
chain: LDNGLARTPTMGWLHWERFMCNLDCQEEPDSCISEKLFMEMAELMVSEGWKDAGYEYLCIDDCWMAPQRDSEGRLQADPQRFPHGIRQLANYVHSKGLKLGIYADVGNKTCAGFPGSFGYYDIDAQTFADWGVDLLKFDGCYCDSLENLADGYKHMSLALNRTGRSIVYSCEWPLYMWPFQKPNYTEIRQYCNHWRNFADIDDSWASIKSILDWTSFNQETIVDVAGPGGWNDPDMLVIGNFGLSWNQQVTQMALWAIMAAPLFMSNDLRHISPQAKALLQDKDVIAINQDPLGKQGYQLRQGDNFEVWERPLSGLAWAVAMINRQEIGGPRSYTIAVASLGKGVACNPACFITQLLPVKRKLGLYEWTSRLRSHINPTGTVLLQLENTMQMSKDLLL
modifications: Synthetic Polypeptide sequence of Variant No. 226 of mature Human GLA
As for B8, in data set [1], the “Relative Activity … at pH 7.6” value was “++ (++ = 1.5 to 2.5 relative activity over Rd2BB (SEQ ID NO: 10))”. The “Relative Activity … at pH 4.2” value in data set [2] is reported as “+ (+ = 0.5 to 1.5 relative activity over Rd2BB (SEQ ID NO: 10))”. In data set [3], the “Relative Activity of GLA Variants After No Challenge (NC)” value is recorded as “+ (+ = 0.5 to 1.5 relative activity over Rd2BB (SEQ ID NO: 10))”.
